{"source": "paper doi:10.1101/435008", "about": "(bioRxiv, 2019)", "proteins": {"B1": {"name": "unphosphorylated kinase domain of With No Lysine(K) kinase-3 (WNK3) (domain or fragment)", "chain": "not shown"}}, "biological_target": "the molecule itself", "experiment": "SEC"}
{"protein": "B1", "values": [{"measurement": "stoichiometry N", "value": 2}]}
